Data: doi:10.1101/2020.06.26.173310 (bioRxiv, 2020)
Read-outs that look alike come from different tables or passages of the source.

Legend:
SEC [1] = molecular target: the molecule itself; experiment: SEC
SEC [2] = molecular target: the molecule itself; experiment: SEC; remark: listed apart in the source

B1: response regulator from Agrobacterium fabrum (AtRR) (natural protein, Agrobacterium fabrum strain C58)
chain: MPELRPILLVEDNPRDLELTLTALEKCQLANEVVVARDGTEALDYLNVTGSHHNRPGGDPAVVLLDLKLPKVDGLEVLQTVKGSDHLRHIPVVMLTSSREEQDLVKSYELGVNAFVVKPVEFNQFFKAIQDLGVFWALLNE
stoichiometry N (SEC [1]): 2

B2: bacteriophytochrome from Deinococcus radiodurans (DrBphP) (natural protein, Deinococcus radiodurans strain R1, UniProt Q9RZA4 1-755, looked up)
chain: MSRDPLPFFPPLYLGGPEITTENCEREPIHIPGSIQPHGALLTADGHSGEVLQMSLNAATFLGQEPTVLRGQTLAALLPEQWPALQAALPPGCPDALQYRATLDWPAAGHLSLTVHRVGELLILEFEPTEAWDSTGPHALRNAMFALESAPNLRALAEVATQTVRELTGFDRVMLYKFAPDATGEVIAEARREGLHAFLGHRFPASDIPAQARALYTRHLLRLTADTRAAAVPLDPVLNPQTNAPTPLGGAVLRATSPMHMQYLRNMGVGSSLSVSVVVGGQLWGLIACHHQTPYVLPPDLRTTLEYLGRLLSLQVQVKEAADVAAFRQSLREHHARVALAAAHSLSPHDTLSDPALDLLGLMRAGGLILRFEGRWQTLGEVPPAPAVDALLAWLETQPGALVQTDALGQLWPAGADLAPSAAGLLAISVGEGWSECLVWLRPELRLEVAWGGATPDQAKDDLGPRHSFDTYLEEKRGYAEPWHPGEIEEAQDLRDTLTGALGERLSVIRDLNRALTQSNAEWRQYGFVISHHMQEPVRLISQFAELLTRQPRAQDGSPDSPQTERITGFLLRETSRLRSLTQDLHTYTALLSAPPPVRRPTPLGRVVDDVLQDLEPRIADTGASIEVAPELPVIAADAGLLRDLLLHLIGNALTFGGPEPRIAVRTERQGAGWSIAVSDQGAGIAPEYQERIFLLFQRLGSLDEALGNGLGLPLCRKIAELHGGTLTVESAPGEGSTFRCWLPDAGPLPGAADA
modifications: biliverdin IXα chromophore, thioether linkage to the conserved cysteine within the PAS domain
stoichiometry N (SEC [2]): 2
